Key:
[1] = target: T1, SARS-CoV-2 RBD (residues Arg319-Phe541), His-tagged (SARS-CoV-2, UniProt P0DTC2); assay: SPR; conditions: both partners purified
[2] = target: T1, SARS-CoV-2 RBD (residues …); assay: cryo-EM structure; conditions: both partners purified

| Binder | binding result [1] | binding result [2] |
| --- | --- | --- |
| MA1 monoclonal antibody (antibody, V domains shown, also called group I mAb; source: hybridoma cell line or transfection of linear expression cassettes) VH: QVQLKESGPGLVAPSQSLSITCTVSGFSLSDYSISWIRQPPGKGLEWLGVIWGGGSTYYNSALKSRLSISKDNSKSQVFLKMNSLQTDDTAMYYCAKHPLYYGSNSDGYYAMDYWGQGTSVTVSS VL: DIVMTQSHKFMSTSVGDRVSITCKASQDVGIVVAWYQQKPGQSPKLLIYWASTRHTGVPDRFTGSGSGTDFTLTISNVQSEDLADYFCQQYSSYPLTFGGGTKLEIK | binds | – |
| MA1scFv (scFv, V domains shown) VH: QVQLKESGPGLVAPSQSLSITCTVSGFSLSDYSISWIRQPPGKGLEWLGVIWGGGSTYYNSALKSRLSISKDNSKSQVFLKMNSLQTDDTAMYYCAKHPLYYGSNSDGYYAMDYWGQGTSVTVSS VL: DIVMTQSHKFMSTSVGDRVSITCKASQDVGIVVAWYQQKPGQSPKLLIYWASTRHTGVPDRFTGSGSGTDFTLTISNVQSEDLADYFCQQYSSYPLTFGGGTKLEIK | – | binds |
